Measurements taken from patent US20170267750A1, “Method of Treating Ovarian and Renal Cancer Using Antibodies Against T Cell Immunoglobulin Domain and Mucin Domain 1 (TIM-1) Antigen” (Celldex Therapeutics, Inc., priority 2005, published 2017).

Molecular target: TIM-1 (T cell, immunoglobulin domain and mucin domain 1), cell membrane-bound (human) (UniProt Q96D42)
Experiment: FACS on polarized human CD4+ Th2 cells, 10 ug/mL mAb, goat anti-human PE (control antibody background)

Chain of TIM-1 (T cell, immunoglobulin domain and mucin domain 1), cell membrane-bound (human) (Q96D42 21-364): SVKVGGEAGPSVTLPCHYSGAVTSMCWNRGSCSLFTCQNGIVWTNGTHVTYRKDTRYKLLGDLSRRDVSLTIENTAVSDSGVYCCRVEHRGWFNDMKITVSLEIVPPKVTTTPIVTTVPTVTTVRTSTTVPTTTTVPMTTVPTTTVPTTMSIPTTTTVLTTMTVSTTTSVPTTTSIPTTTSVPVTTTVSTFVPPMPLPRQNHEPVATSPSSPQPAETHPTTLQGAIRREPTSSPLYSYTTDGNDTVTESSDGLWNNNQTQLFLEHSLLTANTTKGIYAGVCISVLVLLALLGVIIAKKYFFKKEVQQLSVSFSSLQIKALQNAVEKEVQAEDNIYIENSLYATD

Work on “isotype matched control mAb PK16.3 (antibody)” yielded a Geometric mean of fluorescence intensity of 8.4.
